The values that follow come from IntAct's records for PubMed 31515488.

The chains are these.
B1: DNA mismatch repair protein Mlh1 (Homo sapiens), P40692 (parent)
chain: MSFVAGVIRRLDETVVNRIAAGEVIQRPANAIKEMIENCLDAKSTSIQVIVKEGGLKLIQIQDNGTGIRKEDLDIVCERFTTSKLQSFEDLASISTYGFRGEALASISHVAHVTITTKTADGKCAYRASYSDGKLKAPPKPCAGNQGTQITVEDLFYNIATRRKALKNPSEEYGKILEVVGRYSVHNAGISFSVKKQGETVADVRTLPNASTVDNIRSIFGNAVSRELIEIGCEDKTLAFKMNGYISNANYSVKKCIFLLFINHRLVESTSLRKAIETVYAAYLPKNTHPFLYLSLEISPQNVDVNVHPTKHEVHFLHEESILERVQQHIESKLLGSNSSRMYFTQTLLPGLAGPSGEMVKSTTSLTSSSTSGSSDKVYAHQMVRTDSREQKLDAFLQPLSKPLSSQPQAIVTEDKTDISSGRARQQDEEMLELPAPAEVAAKNQSLEGDTTKGTSEMSEKRGPTSSNPRKRHREDSDVEMVEDDSRKEMTAACTPRRRIINLTSVLSLQEEINEQGHEVLREMLHNHSFVGCVNPQWALAQHQTKLYLLNTTKLSEELFYQILIYDFANFGVLRLSEPAPLFDLAMLALDSPESGWTEEDGPKEGLAEYIVEFLKKKAEMLADYFSLEIDEEGNLIGLPLLIDNYVPPLEGLPIFILRLATEVNWDEEKECFESLSKECAMFYSIRKQYISEESTLSGQQSEVPGSIPNSWKWTVEHIVYKALRSHILPPKHFTEDGNILQLANLPDLYKVFERC
B2: Microtubule-associated tumor suppressor candidate 2 (Homo sapiens), Q5JR59-3 (parent)
chain: MGHCCCKPYNCLQCLDKTNESALVKEKELSIELANIRDEVAFHTAKCEKLQKEKEELERRFEDEVKRLGWQQQAELQELEERLQLQFEAEMARLQEEHGDQLLSIRCQHQEQVEDLTASHDAALLEMENNHTVAITILQDDHDHKVQELMSTHELEKKELEENFEKLRLSLQDQVDTLTFQSQSLRDRARRFEEALRKNTEEQLEIALAPYQHLEEDMKSLKQVLEMKNQQIHEQEKKILELEKLAEKNIILEEKIQVLQQQNEDLKARIDQNTVVTRQLSEENANLQEYVEKETQEKKRLSRTNEELLWKLQTGDPTSPIKLSPTSPVYRGSSSGPSSPARVSTTPR
partner: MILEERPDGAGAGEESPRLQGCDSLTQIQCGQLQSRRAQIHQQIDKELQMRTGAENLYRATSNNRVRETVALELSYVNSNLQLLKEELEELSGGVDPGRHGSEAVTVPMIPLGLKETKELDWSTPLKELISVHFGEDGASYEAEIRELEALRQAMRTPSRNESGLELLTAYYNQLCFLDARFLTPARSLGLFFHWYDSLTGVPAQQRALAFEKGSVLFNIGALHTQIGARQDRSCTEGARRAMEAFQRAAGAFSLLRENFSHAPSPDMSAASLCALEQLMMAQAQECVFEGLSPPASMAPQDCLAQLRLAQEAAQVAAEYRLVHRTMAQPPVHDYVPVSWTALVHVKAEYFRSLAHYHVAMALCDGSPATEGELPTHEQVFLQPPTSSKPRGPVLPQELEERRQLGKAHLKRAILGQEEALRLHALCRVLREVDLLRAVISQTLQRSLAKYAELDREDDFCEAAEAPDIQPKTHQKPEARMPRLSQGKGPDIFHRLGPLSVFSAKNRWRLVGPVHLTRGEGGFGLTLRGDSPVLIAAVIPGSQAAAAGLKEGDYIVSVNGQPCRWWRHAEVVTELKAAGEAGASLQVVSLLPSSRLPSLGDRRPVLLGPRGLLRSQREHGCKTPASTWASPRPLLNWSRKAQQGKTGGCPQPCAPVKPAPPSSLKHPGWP
B3: Protein FAM9B (Homo sapiens), Q8IZU0 (parent)
chain: MAAWGKKHAGKDPVRDECEERNRFTETREEDVTDEHGEREPFAETDEHTGANTKKPEDTAEDLTAKRKRMKMDKTCSKTKNKSKHALRKKQLKRQKRDYIHSLKLLNVLEEYITDEQKEEEEEEGEEEELIRIFQEQQKKWQQYRSVRRERLKEMKLLRDQFVKALEDFEDLCDRVFSDEDSELDN
partner: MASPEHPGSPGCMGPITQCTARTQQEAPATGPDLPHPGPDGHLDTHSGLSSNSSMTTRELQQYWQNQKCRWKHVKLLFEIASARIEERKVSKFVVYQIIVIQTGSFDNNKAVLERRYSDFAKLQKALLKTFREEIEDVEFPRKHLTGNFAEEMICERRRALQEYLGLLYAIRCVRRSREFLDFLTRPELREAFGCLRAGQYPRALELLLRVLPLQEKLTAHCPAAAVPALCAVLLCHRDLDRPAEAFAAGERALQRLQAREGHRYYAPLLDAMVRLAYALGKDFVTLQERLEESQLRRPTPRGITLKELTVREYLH
B4: Beta-taxilin (Homo sapiens), Q8N3L3 (parent)
chain: MEANHSEQLSAERQSTPPGDSSSLPSHNGLEKEDGQDSPTPVQPPEKEASVHPDISEELNRQLEDIINTYGSAASTAGKEGSARASEQPENAESPDNEDGDCEETTEEAGREPVASGEPPTVKEPVSNKEQKLEKKILKGLGKEANLLMQNLNKLQTPEEKFDFLFKKYAELLDEHRTEQKKLKLLQKKQVQIQKEKDQLQGEHSRAILARSKLESLCRELQRHNKTLKEEALQRAREEEEKRKEITSHFQSTLTDIQGQIEQQSERNMKLCQENTELAEKLKSIIDQYELREEHLDKIFKHRELQQKLVDAKLEQAQEMMKEAEERHKREKEYLLNQAAEWKLQAKVLKEQETVLQAQLTLYSGRFEEFQSTLTKSNEVFATFKQEMDKTTKKMKKLEKDTATWKARFENCNKALLDMIEEKALRAKEYECFVMKIGRLENLCRALQEERNELHKKIRDAEISEKDDQSQHNSDEEPESNVSVDQEIDAEEVNSVQTAVKNLATAFMIIHHPESTPHQSKETQPEIGSSQESADAALKEPEQPPLIPSRDSESPLPPLTPQAEAEGGSDAEPPSKASNSPAGLGAETQCEGLPVGAQADQASWKPEAEASGQAPQAPTEASLQKMEADVPAPACAAEEHVAAMVPACEPSRQPPRAAAEELPVGASAGPQPRNVADTNLEGVD
partner: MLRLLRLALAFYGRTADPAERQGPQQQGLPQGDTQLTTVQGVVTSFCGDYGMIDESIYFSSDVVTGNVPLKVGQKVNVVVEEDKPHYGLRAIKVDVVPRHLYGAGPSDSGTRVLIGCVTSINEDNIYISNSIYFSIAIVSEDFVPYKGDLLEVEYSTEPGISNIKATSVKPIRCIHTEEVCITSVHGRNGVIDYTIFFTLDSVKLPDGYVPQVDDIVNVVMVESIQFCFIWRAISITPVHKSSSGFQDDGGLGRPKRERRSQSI
B5: Four and a half LIM domains protein 3 (Homo sapiens), Q13643 (parent)
chain: MSESFDCAKCNESLYGRKYIQTDSGPYCVPCYDNTFANTCAECQQLIGHDSRELFYEDRHFHEGCFRCCRCQRSLADEPFTCQDSELLCNDCYCSAFSSQCSACGETVMPGSRKLEYGGQTWHEHCFLCSGCEQPLGSRSFVPDKGAHYCVPCYENKFAPRCARCSKTLTQGGVTYRDQPWHRECLVCTGCQTPLAGQQFTSRDEDPYCVACFGELFAPKCSSCKRPIVGLGGGKYVSFEDRHWHHNCFSCARCSTSLVGQGFVPDGDQVLCQGCSQAGP
B6: Ropporin-1A (Homo sapiens), Q9HAT0 (parent)
chain: MAQTDKPTCIPPELPKMLKEFAKAAIRVQPQDLIQWAADYFEALSRGETPPVRERSERVALCNRAELTPELLKILHSQVAGRLIIRAEELAQMWKVVNLPTDLFNSVMNVGRFTEEIEWLKFLALACSALGVTITKTLKIVCEVLSCDHNGGSPRIPFSTFQFLYTYIAKVDGEISASHVSRMLNYMEQEVIGPDGIITVNDFTQNPRVQLE
partner: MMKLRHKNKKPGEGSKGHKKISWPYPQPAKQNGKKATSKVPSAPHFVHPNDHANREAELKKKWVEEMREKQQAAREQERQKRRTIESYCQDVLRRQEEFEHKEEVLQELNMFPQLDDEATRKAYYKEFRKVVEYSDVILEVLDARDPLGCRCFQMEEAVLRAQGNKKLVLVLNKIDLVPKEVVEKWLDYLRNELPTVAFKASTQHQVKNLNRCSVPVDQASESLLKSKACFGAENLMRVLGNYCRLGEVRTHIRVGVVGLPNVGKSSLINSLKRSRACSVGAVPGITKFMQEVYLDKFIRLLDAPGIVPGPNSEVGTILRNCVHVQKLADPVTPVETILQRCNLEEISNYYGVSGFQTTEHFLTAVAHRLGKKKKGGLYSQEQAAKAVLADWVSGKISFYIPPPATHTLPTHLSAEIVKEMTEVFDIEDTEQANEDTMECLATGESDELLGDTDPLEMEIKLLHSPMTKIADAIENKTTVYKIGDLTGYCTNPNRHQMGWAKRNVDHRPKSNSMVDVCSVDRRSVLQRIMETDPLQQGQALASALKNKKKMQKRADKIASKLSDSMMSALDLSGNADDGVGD

In one experiment the parent is B1. The settings on record: with msh3_human MSH3, P20585.
As for S406N, the “effect of a mutation on the interaction” value was “with no effect”.

The variants in the next experiment derive from B1. The settings on record: with ima1_human KPNA2, P52292.
Turning to S406N, the “effect of a mutation on the interaction” value was “with no effect”.

Variants of B1 are the subject of the next experiment. The settings on record: with psa1_human PSMA1, P25786.
Turning to S406N, the “effect of a mutation on the interaction” value is on record as “with no effect”.

Variants of B1 are the subject of another experiment. The settings on record: with msh3_human MSH3, P20585. The source holds these as a separate data set.
On to R69K, for which the “effect of a mutation on the interaction” value was “with no effect”.

A further experiment covers variants of B1. The settings on record: with ima1_human KPNA2, P52292. The source holds these as a separate data set.
For R69K, the “effect of a mutation on the interaction” value was “with no effect”.

The variants in the next experiment derive from B1. The settings on record: with psa1_human PSMA1, P25786. The source holds these as a separate data set.
For R69K, the “effect of a mutation on the interaction” value is on record as “with no effect”.

A further experiment covers variants of B2. The settings on record: with rhpn1_human RHPN1, Q8TCX5.
Consider A89V, for which the “effect of a mutation on the interaction” value was “with no effect”.

The variants in the next experiment derive from B3. The settings on record: with snx20_human SNX20, Q7Z614.
On to R23H, for which the “effect of a mutation on the interaction” value is given as “with no effect”.

Another experiment covers variants of B4. The settings on record: with ct55_human CT55, Q8WUE5.
In the case of T361A, the “effect of a mutation on the interaction” value was “with no effect”.
The same measure, in the same setting: next, T523I: “with no effect”.

The variants in a further experiment derive from B5. The settings on record: with FAM90A1, Q86YD7.
For A103T, the “effect of a mutation on the interaction” value is “with no effect”.

The variants in another experiment derive from B5. The settings on record: with gata2_human GATA2, P23769.
Consider R226H, for which the “effect of a mutation on the interaction” value is “with no effect”.

The variants in the next experiment derive from B6. The settings on record: with gnl3l_human GNL3L.
Consider C62W, for which the “effect of a mutation on the interaction” value is recorded as “with no effect”.
